{"source": "paper PMC3836734", "biological_target": "Fc neonatal receptor (FcRn) (human (endogenous in HEC-1A)) (UniProt P55899)", "sequence (P55899 whole entry, looked up, tested part not stated)": "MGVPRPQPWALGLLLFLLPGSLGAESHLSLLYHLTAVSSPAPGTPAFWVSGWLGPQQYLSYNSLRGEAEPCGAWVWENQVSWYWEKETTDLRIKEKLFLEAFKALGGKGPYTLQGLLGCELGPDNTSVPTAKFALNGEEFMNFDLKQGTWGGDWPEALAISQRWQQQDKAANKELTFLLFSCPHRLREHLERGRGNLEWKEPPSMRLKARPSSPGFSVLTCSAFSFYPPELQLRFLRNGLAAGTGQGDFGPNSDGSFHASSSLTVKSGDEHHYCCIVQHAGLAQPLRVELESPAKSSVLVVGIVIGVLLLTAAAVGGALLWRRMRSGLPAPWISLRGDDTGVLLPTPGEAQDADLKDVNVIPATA", "data": [{"substance": "mAb VRC01, IgG1 (antibody)", "values": [{"measurement": "transcytosis of IgG alone (50 µg/ml) across HEC-1A cells, IgG in subnatant fluid by ELISA after 12 hours; about 0.4% at pH 7.4", "value": 1.3, "unit": "%"}]}]}
